Nine molecules from patent CN115894704A (UNIV SICHUAN, dated 2023) can be followed below.

First the molecules themselves.
B1: Anti-EpCAM-VHH SEQ ID NO 2 (phage-displayed) (VHH)
VHH: HVQLVESGGGSVQSGGSLRLSCAASGYAVKNCMGWFRQAPGKEREGVAVINRNGITTYADSVKGRFTISQDKDKNTLDLQMNSLKPEDTAMYYCAATPTLLTIPARFLCDVRNPSGFTDWGQGTLVTVSS
notes: fusion to the phage coat protein is not described
B2: Anti-EpCAM-VHH SEQ ID NO 1 (phage-displayed) (VHH)
VHH: DVQLVESGGGSVQSGGSLRLSCAASGYTYRRYYMGWFRQAPGEQREGVAVINNDGRTNYADSVKGRFRISRDNAENTLHLEMNSLKPEDTAMYYCAATGNILPPMTAVPPLGRQWYPYWGRGTLVTVSS
notes: as for B1
B3: Anti-EpCAM-VHH SEQ ID NO 5 (phage-displayed) (VHH)
VHH: DVQLVESGGGSVQAGRSLRLSCELSDYTWSTVCMGWFRQAPGKEREGVAVIYTRSGGTTYADSAKGRFTISRDNAKDTLYLQMDSLKPEDTAMYYCAAGPLYDGRCTYRSPAFHYWGQGTQVTVSS
notes: as for B1
B4: Anti-EpCAM-VHH SEQ ID NO 7 (phage-displayed) (VHH)
VHH: HVQLVESGGGSVQAGGSLKLSCAASGSIFSGSIFSRCGMRWYRQAPGKERELVSSTSKDGFTSYTDSVKGRFTISQDNANNTLYLQMSSLKTEDTAVYSCAAICAVGGYSLSTYTYWGQGTQVTVSS
notes: as for B1
B5: Anti-EpCAM-VHH SEQ ID NO 4 (phage-displayed) (VHH)
VHH: QVQLVESGGGSVQAGGSLRLSCVATGFTISRKCMGWFREAPGKKREVIATINTGSSSPYYADGVKGRFTISQDNAKNTVYLQMNSLKPEDTAMYYCAATKGVVVGTGYCGGPYVERPNSAYWGQGTQVTVSS
notes: as for B1
B6: Anti-EpCAM-VHH SEQ ID NO 8 (phage-displayed) (VHH)
VHH: EVQLVESGGDSVQAGGSLRLSCAASGYSPGSYCMGWFRQAPGKERERVAIIESRGTVTYVDSVKGRFTISKDNAKNTLYLQMNSLKPEDTAMYYCAASRPWSGVRCLHDKYDYWGQGTQVTVSS
notes: as for B1
B7: Anti-EpCAM-VHH SEQ ID NO 9 (phage-displayed) (VHH)
VHH: HVQLVESGGGSVQSGGSLRLSCAVSGYAYSSLAWFRQAPGKEREGVAALLTAIGGPTRTTYADSVKGRLAISQDHAKNTLYLQMSSLKPEDTAMYYCAAGRPAGTPRWLLLAPRDYNYWGQGTQVTVSS
notes: as for B1
B8: Anti-EpCAM-VHH SEQ ID NO 3 (phage-displayed) (VHH)
VHH: QVQLVESGGGSVQAGGSLRLSCVVSAYSAYTYKTMCMGWFRQAPGKEREGVAAIYRGGLNTYYADSVKGRFIISRDNAESTMYLQMNSLKPEDTAMYYCAADWLRGDDCNIGANFDYWGQGTQVTVSS
notes: as for B1
B9: Anti-EpCAM-VHH SEQ ID NO 6 (phage-displayed) (VHH)
VHH: DVQLVESGGGSAQAGGSLRLSCAASGPTSSLRTMGWFRQASGKERERVAVIWDGRTTDYDDSVQDRFTISQDNAKSTVYLQMNTLKPEDTAMYYCAASPRIVPFASTYFQHWGQGTQVTVSS
notes: as for B1

The assay addresses T1, EpCAM-camFc(人EpCAM与羊驼Fc重组蛋白) (human, UniProt P16422 24-265).
T1 construct: Recombinant fusion of human EpCAM and alpaca Fc; not shown: alpaca Fc
T1 sequence (looked up): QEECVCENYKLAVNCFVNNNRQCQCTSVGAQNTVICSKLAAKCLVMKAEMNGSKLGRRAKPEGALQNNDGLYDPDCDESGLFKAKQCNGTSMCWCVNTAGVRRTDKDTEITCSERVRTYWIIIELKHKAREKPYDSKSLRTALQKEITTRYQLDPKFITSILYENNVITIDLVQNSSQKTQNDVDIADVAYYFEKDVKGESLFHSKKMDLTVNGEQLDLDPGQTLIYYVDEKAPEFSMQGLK
Put plainly: phage ELISA, EpCAM-camFc coated, anti-M13 HRP. For orientation: ELISA stands for enzyme-linked immunosorbent assay.
Turning to B1, the binding result is given as “binds”. With B2 the entry was “binds”; with B3, “binds”; with B4, “binds”. With B5 the entry was “binds”; with B6, “binds”; with B7, “binds”. On to B8, for which the binding result was “binds”. With B9 the entry was “binds”.
